From publication PMC3701624, “Three-Dimensional Structure of Human NLRP10/PYNOD Pyrin Domain Reveals a Homotypic Interaction Site Distinct from Its Mouse Homologue” (PLoS ONE, 2013)

How the values were obtained:
[1] = substrate: Nc1nc2c(ncn2[C@@H]2O[C@H](COP(=O)(O)OP(=O)(O)OP(=O)(O)O)[C@@H](O)[C@H]2O)c(=O)[nH]1; experiment: malachite green phosphate release, Lineweaver-Burk; type: biochemical, Homo sapiens; conditions: 50 mM Tris-HCl pH 8.0, 10 mM MgCl2, 37°C, 3 µM protein, 0.1–3.2 mM nucleotide
Description: (§1) malachite green phosphate release, Lineweaver-Burk on MBP-huNLRP10 (huNLRP10, PYNOD)

[2] = substrate: Nc1ncnc2c1ncn2[C@@H]1O[C@H](COP(=O)(O)OP(=O)(O)OP(=O)(O)O)[C@@H](O)[C@H]1O; experiment: malachite green phosphate release, Lineweaver-Burk; type: biochemical, Homo sapiens; conditions: 50 mM Tris-HCl pH 8.0, 10 mM MgCl2, 37°C, 3 µM protein, 0.1–3.2 mM nucleotide
Description: as §1

[3] = substrate: Nc1nc2c(ncn2[C@@H]2O[C@H](COP(=O)(O)OP(=O)(O)OP(=O)(O)O)[C@@H](O)[C@H]2O)c(=O)[nH]1; experiment: malachite green phosphate release, Lineweaver-Burk; type: biochemical, Homo sapiens; conditions: 50 mM Tris-HCl pH 8.0, 10 mM MgCl2, 37°C, 3 µM protein, 0.1–3.2 mM nucleotide; remark: listed apart in the source
Description: (§2) malachite green phosphate release, Lineweaver-Burk on MBP-huNLRP10ΔPYD (huNLRP10ΔPYD)

[4] = substrate: Nc1ncnc2c1ncn2[C@@H]1O[C@H](COP(=O)(O)OP(=O)(O)OP(=O)(O)O)[C@@H](O)[C@H]1O; experiment: malachite green phosphate release, Lineweaver-Burk; type: biochemical, Homo sapiens; conditions: 50 mM Tris-HCl pH 8.0, 10 mM MgCl2, 37°C, 3 µM protein, 0.1–3.2 mM nucleotide; remark: listed apart in the source
Description: as §2

[5] = molecular target: T1, MBP-huNLRP10ΔPYD (Arg103-Ile655) (Homo sapiens (Human), UniProt Q86W26); experiment: size-exclusion chromatography and pull-down (data not shown)
T1 chain: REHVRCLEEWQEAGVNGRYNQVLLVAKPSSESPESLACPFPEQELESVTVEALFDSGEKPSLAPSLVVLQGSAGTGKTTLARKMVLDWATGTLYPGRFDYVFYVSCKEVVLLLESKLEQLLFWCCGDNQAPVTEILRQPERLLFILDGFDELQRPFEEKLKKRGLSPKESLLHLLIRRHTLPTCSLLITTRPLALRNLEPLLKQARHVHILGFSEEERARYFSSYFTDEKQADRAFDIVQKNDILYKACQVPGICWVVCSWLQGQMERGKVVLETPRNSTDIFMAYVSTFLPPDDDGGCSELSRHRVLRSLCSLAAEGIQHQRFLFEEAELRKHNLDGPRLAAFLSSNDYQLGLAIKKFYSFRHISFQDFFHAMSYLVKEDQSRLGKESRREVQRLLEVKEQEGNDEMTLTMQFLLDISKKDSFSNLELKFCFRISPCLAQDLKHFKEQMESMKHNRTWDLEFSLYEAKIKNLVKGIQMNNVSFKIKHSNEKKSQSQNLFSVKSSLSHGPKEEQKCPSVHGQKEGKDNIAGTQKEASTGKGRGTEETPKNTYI

B1: MBP-huNLRP10 (huNLRP10, PYNOD) (Homo sapiens) (protein)
chain: MAMAKARKPREALLWALSDLEENDFKKLKFYLRDMTLSEGQPPLARGELEGLIPVDLAELLISKYGEKEAVKVVLKGLKVMNLLELVDQLSHICLHDYREVYREHVRCLEEWQEAGVNGRYNQVLLVAKPSSESPESLACPFPEQELESVTVEALFDSGEKPSLAPSLVVLQGSAGTGKTTLARKMVLDWATGTLYPGRFDYVFYVSCKEVVLLLESKLEQLLFWCCGDNQAPVTEILRQPERLLFILDGFDELQRPFEEKLKKRGLSPKESLLHLLIRRHTLPTCSLLITTRPLALRNLEPLLKQARHVHILGFSEEERARYFSSYFTDEKQADRAFDIVQKNDILYKACQVPGICWVVCSWLQGQMERGKVVLETPRNSTDIFMAYVSTFLPPDDDGGCSELSRHRVLRSLCSLAAEGIQHQRFLFEEAELRKHNLDGPRLAAFLSSNDYQLGLAIKKFYSFRHISFQDFFHAMSYLVKEDQSRLGKESRREVQRLLEVKEQEGNDEMTLTMQFLLDISKKDSFSNLELKFCFRISPCLAQDLKHFKEQMESMKHNRTWDLEFSLYEAKIKNLVKGIQMNNVSFKIKHSNEKKSQSQNLFSVKSSLSHGPKEEQKCPSVHGQKEGKDNIAGTQKEASTGKGRGTEETPKNTYI
notes: full length (Met1-Ile655), N-terminal His6-MBP fusion (pETM41), tag kept; E. coli BL21(DE3)
Km [1]: 295.6 ± 11.0 µM | Km [2]: 169.3 ± 7.3 µM

B2: MBP-huNLRP10ΔPYD (huNLRP10ΔPYD) (Homo sapiens) (protein)
chain: REHVRCLEEWQEAGVNGRYNQVLLVAKPSSESPESLACPFPEQELESVTVEALFDSGEKPSLAPSLVVLQGSAGTGKTTLARKMVLDWATGTLYPGRFDYVFYVSCKEVVLLLESKLEQLLFWCCGDNQAPVTEILRQPERLLFILDGFDELQRPFEEKLKKRGLSPKESLLHLLIRRHTLPTCSLLITTRPLALRNLEPLLKQARHVHILGFSEEERARYFSSYFTDEKQADRAFDIVQKNDILYKACQVPGICWVVCSWLQGQMERGKVVLETPRNSTDIFMAYVSTFLPPDDDGGCSELSRHRVLRSLCSLAAEGIQHQRFLFEEAELRKHNLDGPRLAAFLSSNDYQLGLAIKKFYSFRHISFQDFFHAMSYLVKEDQSRLGKESRREVQRLLEVKEQEGNDEMTLTMQFLLDISKKDSFSNLELKFCFRISPCLAQDLKHFKEQMESMKHNRTWDLEFSLYEAKIKNLVKGIQMNNVSFKIKHSNEKKSQSQNLFSVKSSLSHGPKEEQKCPSVHGQKEGKDNIAGTQKEASTGKGRGTEETPKNTYI
notes: NOD only, pyrin domain removed (Arg103-Ile655), N-terminal His6-MBP fusion (pETM41), tag kept; E. coli BL21(DE3)
Km [3]: 193.7 ± 17.1 µM | Km [4]: 201.9 ± 1.9 µM

B3: human NLRP10/PYNOD pyrin domain (residues 1-100) (protein)
chain: MAMAKARKPREALLWALSDLEENDFKKLKFYLRDMTLSEGQPPLARGELEGLIPVDLAELLISKYGEKEAVKVVLKGLKVMNLLELVDQLSHICLHDYRE
binding result [5]: no binding
